Molecular target: T1, mouse ENTPD2 (Mus musculus, UniProt O55026)
T1 construct: expressed in transfected cells
T1 sequence (O55026 1-495): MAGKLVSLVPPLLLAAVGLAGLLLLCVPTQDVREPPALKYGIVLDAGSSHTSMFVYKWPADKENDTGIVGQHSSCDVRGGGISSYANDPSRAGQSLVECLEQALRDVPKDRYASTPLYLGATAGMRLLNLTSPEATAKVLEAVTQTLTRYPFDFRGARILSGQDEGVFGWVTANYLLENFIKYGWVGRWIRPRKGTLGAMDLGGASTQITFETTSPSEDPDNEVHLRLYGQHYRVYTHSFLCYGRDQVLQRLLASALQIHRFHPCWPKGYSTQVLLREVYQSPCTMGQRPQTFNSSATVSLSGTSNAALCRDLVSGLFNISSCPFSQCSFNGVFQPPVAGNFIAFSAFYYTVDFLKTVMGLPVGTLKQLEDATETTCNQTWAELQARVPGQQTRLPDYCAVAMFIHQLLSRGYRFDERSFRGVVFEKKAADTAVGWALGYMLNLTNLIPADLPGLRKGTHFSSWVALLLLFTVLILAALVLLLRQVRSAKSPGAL
Assay: Mouse ENTPD2 NIH/3T3 cell-based functional assay
Description: Biochemical and cell-based functional assays were developed in-house to understand functional impact of anti-ENTPD2 Abs against purified extracellular domain of ENTPD2 (residues 29-462), as well as against the fully intact protein in the context of the native cell-based conformation. ENTPD2 hydrolyzes ATP to ADP, which can subsequently be detected using the HTRF Transcreener ADP2 TR-FRET Red Assay (BellBrook Labs, Madison, WI) where ENTPD2-produced ADP would compete with the ADP Tracer for binding to the anti-ADP-Tb antibody. The resulting signal is inversely proportional to the concentration of ADP in the sample.
To establish cell-based functional assays, human/cyno/mouse ENTPD2-engineered NIH/3T3 cells or RKO (ATCC, Manassa VA) colorectal cancer cells with endogenous ENTPD2 expression were plated overnight at 150, 200 and 250 cells per well for NIH/3T3 mouse, cyno and human ENTPD2 lines, respectively, or 1000 cells per well for RKO in 384-well tissue culture plate, in 30 μl per well (Perkin Elmer, Waltham, MA). […] ADP production was detected with the Transcreener ADP2 TR-FRET Red Assay (BellBrook Labs, Madison, WI) with a final concentration of 4 nM ADP2 antibody and 13.4 nM of ADP Tracer in wells (4× solution was prepared and 5 μL of “Detection Reagent Mix” was added to the quenched conditioned media). […]

B1: mAb13: anti-mouse ENTPD2 monoclonal antibody, VH SEQ ID NO: 191, VL SEQ ID NO: 202 (antibody, V domains shown)
VH: QVQLVQSGAELKQPGQSVKISCKASGYTFTHYGMNWVKQAPGQGLKWMGWINTDTGNPTYADDFKGRFVFSLDTSVSTAYLQISNLKNEDTATYYCVRYGTLYSGYGFFFDSWGQGTLVTVSS
VL: DIMMTQSPSSLSVSAGEKATITCKSSQSLFNSNTNKNYLNWYLQKPGQSPKLLFYYASTRHTGVPDRFIGSGSGTDFTLTITSVQDEDLADYYCQQWYSYPWTFGPGTKLEIK
- % Inhibition at 100 nM (±Std Err) (100 nM antibody, mouse ENTPD2 NIH/3T3 cells): 44 ± 7.3%
- maximum target inhibition (mouse ENTPD2 inhibition) (NIH3T3-mouse ENTPD2 engineered cell line): 44%

Source: patent US11939397B2, “ENTPD2 antibodies, combination therapies, and methods of using the antibodies and combination therapies” (Novartis AG, priority 2018, dated 2024)
